From patent CN117677637A (PETEMEDI LTD, dated 2024)
Positions count from the first letter of the chain named.

T1: 犬CD20 (canine CD20, B淋巴细胞抗原CD20, full length, wild type) (canine (dog), UniProt Q3C2E2 1-297)
T1 construct: Stably expressed from full-length cDNA on MDCK II (or HEK293) cells for flow cytometry and ADCC; naturally expressed on CLBL-1 canine lymphoma cells in the CDC assay; also called cCD20; MS4A1
T1 chain: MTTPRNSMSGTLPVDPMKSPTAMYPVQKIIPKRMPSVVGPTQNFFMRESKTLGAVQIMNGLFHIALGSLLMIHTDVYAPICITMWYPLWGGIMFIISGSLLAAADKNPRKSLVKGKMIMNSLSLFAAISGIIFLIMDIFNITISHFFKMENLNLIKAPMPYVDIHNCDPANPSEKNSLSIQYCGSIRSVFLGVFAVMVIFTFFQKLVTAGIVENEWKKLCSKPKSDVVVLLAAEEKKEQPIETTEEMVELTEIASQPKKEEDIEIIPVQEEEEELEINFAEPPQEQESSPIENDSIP

B1: PMX002 (antibody, V domains shown)
VH: EVQLVESGGDLVKPGGSLRLSCVASGIIFSNYHMSWVRQVPGKGLQWVAYINSGGSTINYADGVKGRFTISRDNAKNSLYLQMNSLRGEDTAVYYCTTYDSWGQGTLVTVSS
VL: SYVLTQLPSKNVTLKQPAHITCGGDNIGSKSVHWYQQKLGQAPVLIIYYDSSRPTGIPERFSGANSGNTATLTISGALAEDEADYYCQVWDSSVNVFGGGTHLTVL
notes: Fully canine mAb; also called PMX002 mAb
B2: PMX069 (antibody, V domains shown)
VH: EMQLVESGGALVKPGGSLRLSCVASGFTFRRYHMSWVRQAPGQGLQWVAYIDSDGSPTSYGDSVKGRFTISRDNAKNTLFLQMNSLRVDDTAVYYCTTLDYWGRGTLVTVSS
VL: B1 VL with L7V, S29G, V44L, S51T, S52R, G76R, V94G, L106I
notes: also called PMX0069
B3: PMX075 (antibody, V domains shown)
VH: EVQLVESGGDLVKPGGSLRLSCVASGITFSRYHMSWVRQAPGKGLQWVAFINTGRSSTNYADAVAGRFTISRDNAKNTLYLQMNGLTVEDTAVYYCSTLDYWGQGTLVTVSS
VL: B1 VL with N11S, V44I, S51N, S52N, Q88H
B4: PMX071 (antibody, V domains shown)
VH: EVHLVESGGDLVKPGGSLRLSCVASGITFNRYYMNWVRQTPGKGLQWVAYIDSGGSPTTYADAVKGRFTISRDNAKNTLYLQMNSLRAEDTAVYYCTSFDYWGQGTLVTVSS
VL: B1 VL with V44I, S51T, V94A
B5: PMX080 (antibody, V domains shown)
VH: B4 VH with H3Q, I27L, N30S, T40A, T59N, T97S
VL: B1 VL with L4V, K10N, N11T, S52R, V94A
B6: PMX076 (antibody, V domains shown)
VH: B4 VH with H3Q, N30S, T40A, N77K, T78A
VL: B1 VL with Y86F, V94A
B7: PMX074 (antibody, V domains shown)
VH: EVQLVESGGDLVKPGGSLRLSCVASGFTFSRYYMTWVRQAPGKGLQWVAYINSDRRSTTYADAVKGRFTISRDNAKNTLYLQMNSLRAEDTAVYYCTTLEYWGQGTLVTVSS
VL: B1 VL with S52R, S75N, V94A
B8: PMX081 (antibody, V domains shown)
VH: EVQLVQSGGDLVKPGGSLRLSCVASGYTFTRYHMSWVRQAPGKGLQWVAFINSDGTGITYGDAVKGRFTISRDNAKNTLYLQMNSLRAEDTAIYYCTTFDSWGQGTLVTVSS
VL: B1 VL with V44I, S52R, V94G
B9: PMX066 (antibody, V domains shown)
VH: AVQLVESGGDLVKPGGSLRLSCVASGITFSRYHMSWVRQAPGKGLQWVAYINSGGSATSYTDAVKGRFSISRDNGKNTLYLQMNSLRVEDSAVYYCTTLDLWGQGTLVTVSS
VL: B1 VL with S52R, S75N, V89M, V94A
notes: Canine mAb
B10: PMX078 (antibody, V domains shown)
VH: EVQLVESGGDLVKPGGSLRLSCVASGLTFSRYHMSWIRQAPGKGLQWVAYISSGGSSTNYAGSVKGRFTVSRDNAKNTLYLQMNSLRAEDTAVYYCTSLDYWGQGTLVTVSS
VL: B1 VL with S52R, V94D
B11: PMX067 (antibody, V domains shown)
VH: EIQLVESGGDLVKPGGSLRLSCVASGFTFSRYHMSWVRQAPGKGLQWVAYINTGGSNTNYADAVKGRFTISRDNAKNTLYLQMNSLRAEDTAVYYCTTLDSWGQGTLVTVSS
VL: B1 VL with S9F, S52R
notes: also called PMX0067
B12: PMX079 (antibody, V domains shown)
VH: B11 VH with I2V, F27L, Y50F, T53S, G55R, N57D, N59T, L99F, S101Y
VL: B1 VL with V44A, V94A
B13: PMX072 (antibody, V domains shown)
VH: B3 VH with I27F, G85S, T87R, V88A
VL: B1 VL with V94A
B14: PMX073 (antibody, V domains shown)
VH: B4 VH with H3Q, I27F, N30S, T40A, Y50F, D52T, P57S, T59S, A61G
VL: B1 VL with D50A, V94A
B15: PMX070 (antibody, V domains shown)
VH: B11 VH with I2M, T53S, N57P, L99Y, S101Q
VL: B1 VL with N11S, S92T, V94A
B16: PMX077 (antibody, V domains shown)
VH: B4 VH with H3Q, N30S, T40A, D52N
VL: B1 VL with V44I, S51T, V94A
B17: PMX003 (antibody, V domains shown)
VH: B11 VH with I2V, F27I, T53S, N57S, N59S, A61P, N84D, V93L, L99F, S101Y
VL: B1 VL with S52R, V94A
notes: Fully canine mAb; Tested in native form and in an a-fucosylated form (made in Fut8 knockout CHO cells) in CDC/ADCC; also called PMX003 mAb
B18: PMX115 (antibody, V domains shown)
VH: B2 VH
VL: B1 VL with L7V, N11S, S29G, V44L, S51T, S52R, G76R, V94G, L106I
notes: also called PMX115 mAb
B19: PMX007 (antibody, V domains shown)
VH: B11 VH with I2V, F27I, T53S, N57S, N59S, A61P, N84D, V93L, L99F, S101Y
VL: B1 VL with N11A, S52R, V94A
notes: PMX003 heavy chain; Constant regions not restated (PMX003: dog IGGB / dog IGLC5); also called PMX007 mAb; AVT突变体
B20: PMX006 (antibody, V domains shown)
VH: B11 VH with I2V, F27I, T53S, N57S, N59S, A61P, N84D, V93L, L99F, S101Y
VL: B1 VL with N11Q, S52R, V94A
notes: PMX003 heavy chain; Constant regions not restated (PMX003: dog IGGB / dog IGLC5); also called PMX006 mAb; QVT突变体
B21: PMX004 (antibody, V domains shown)
VH: EVQLVESGGELVKPGGSLRVSCVASGITFSRYHMSWVRQAPGKGLQWVAFINTDRSSPKYADSVKGRFTISRDNAKNTLYLQMNSLRAEDTAIYYCTSFDYWGQGTLVTVSS
VL: B1 VL with V94A
notes: Fully canine mAb; also called PMX004 mAb
B22: PMX001 (antibody, V domains shown)
VH: B11 VH with I2V, R31S, T53S, N57S, N59T, N77K, T97S, L99F, S101Y
VL: B1 VL with K10R, S51T, S52R, V94G
notes: Fully canine mAb; also called PMX001 mAb
B23: PMX005 (antibody, V domains shown)
VH: B11 VH with I2V, T53S, N57D, T58S, N59D, T98S, S101Y
VL: B1 VL with S92R, V94G
notes: Fully canine mAb; also called PMX005 mAb
B24: PMX011 (antibody, V domains shown)
VH: B11 VH with I2V, F27I, T53S, N57S, N59S, A61P, N84D, V93L, L99F, S101Y
VL: B1 VL with N11T, S52R, V94A
notes: PMX003 heavy chain; Constant regions not restated (PMX003: dog IGGB / dog IGLC5); also called PMX011 mAb; TVT
B25: PMX010 (antibody, V domains shown)
VH: B11 VH with I2V, F27I, T53S, N57S, N59S, A61P, N84D, V93L, L99F, S101Y
VL: B1 VL with N11S, S52R, V94A
notes: PMX003 heavy chain; Constant regions not restated (PMX003: dog IGGB / dog IGLC5); also called PMX010 mAb; SVT
B26: PMX008 (antibody, V domains shown)
VH: B11 VH with I2V, F27I, T53S, N57S, N59S, A61P, N84D, V93L, L99F, S101Y
VL: B1 VL with N11E, S52R, V94A
notes: PMX003 heavy chain; Constant regions not restated (PMX003: dog IGGB / dog IGLC5); also called PMX008 mAb; EVT
B27: PMX009 (antibody, V domains shown)
VH: B11 VH with I2V, F27I, T53S, N57S, N59S, A61P, N84D, V93L, L99F, S101Y
VL: B1 VL with T13A, S52R, V94A
notes: PMX003 heavy chain; Constant regions not restated (PMX003: dog IGGB / dog IGLC5); also called PMX009 mAb; NVA

Target: T1, 犬CD20 (canine CD20, B淋巴细胞抗原CD20, full …)
Assay: flow cytometry, 10 ug/ml antibody on MDCK II cells expressing canine CD20 (Fig 3A); equal to 4E1-7

Binding result, binds:
B1

Target: T1, 犬CD20 (canine CD20, B淋巴细胞抗原CD20, full …)
Assay: flow cytometry, 10 ug/ml antibody on MDCK II cells expressing canine CD20 (Fig 3C)

Binding result, binds:
B2
B3
B4
B5
B6
B7
B8
B9
B10
B11
B12
B13
B14
B15
B16

Target: T1, 犬CD20 (canine CD20, B淋巴细胞抗原CD20, full …)
Assay: flow cytometry on MDCK cells expressing wild-type canine CD20 (positive control of epitope mapping)

Binding result, binds:
B17
B18

Target: T1, 犬CD20 (canine CD20, B淋巴细胞抗原CD20, full …)
Assay: flow cytometry on cells expressing canine CD20, against PMX003 (Fig 3B); slight decrease

Binding result, binds:
B19
B20

Target: T1, 犬CD20 (canine CD20, B淋巴细胞抗原CD20, full …)
Assay: flow cytometry, 10 ug/ml antibody on MDCK II cells expressing canine CD20 (Fig 3A)

Binding result, binds:
B21
B22
B23

Target: T1, 犬CD20 (canine CD20, B淋巴细胞抗原CD20, full …)
Assay: flow cytometry, 10 ug/ml antibody on MDCK II cells expressing canine CD20 (Fig 3B)

Binding result, binds:
B24
B25

Target: T1, 犬CD20 (canine CD20, B淋巴细胞抗原CD20, full …)
Assay: flow cytometry on cells expressing canine CD20, against PMX003 (Fig 3B); unchanged

Binding result, binds:
B26
B27
